# Tests used:
# Assay in all cases: cell-based or functional assay
# [1] = molecular target: SARS-CoV-2 S:G614+Δ19aa spike protein (encoded by pGM907, S-LV v02) (SARS-CoV-2) (UniProt P0DTC2)
# [2] = molecular target: SARS-CoV-2 S:B.1.1351+Δ19aa spike protein (B.1.351, encoded by pGM970, S-LV v04) (SARS-CoV-2) (UniProt P0DTC2)
# [3] = molecular target: SARS-CoV-2 S:B.1.1.7+Δ19aa spike protein (encoded by pGM965, S-LV v04) (SARS-CoV-2) (UniProt P0DTC2)
substance,measurement,setting,value
"MM43 neutralising antibody (mouse IgG1, SARS-CoV-2 S neutralising antibody, Sino Biological, Catalogue No. 40591-MM43)","MM43 IC50 (ug/mL), neutralisation of S-LV transduction",[1],0.8 µg/mL
same,"MM43 IC50 (ug/mL), neutralisation of S-LV transduction",[2],0.5 µg/mL
"R001 neutralising antibody (rabbit IgG, SARS-CoV-2 S neutralising antibody, Sino Biological, Catalogue No. 40592-R001)","R001 IC50 (ug/mL), neutralisation of S-LV transduction",[3],0.32 µg/mL
same,"R001 IC50 (ug/mL), neutralisation of S-LV transduction",[1],0.06 µg/mL

# — patent US20250304996A1
